The values that follow come from article PMC4303003, “Repressive mutations restore function-loss caused by the disruption of trimerization in Escherichia coli multidrug transporter AcrB” (Frontiers in Microbiology, 2015).

The data set deals with the molecule itself. Briefly: native gel or EMSA; BN-PAGE of purified AcrB proteins; loading buffer with 1% dodecylmaltoside, 0.1% Coomassie G-250, pH 7.0; 4-15% gradient gel, 15 mA, 4°C, 2 h; trimer and monomer bands quantified with ImageJ; trimer to monomers.

B1: wild type AcrB (Escherichia coli multidrug transporter AcrB) (natural protein)
chain: MPNFFIDRPIFAWVIAIIIMLAGGLAILKLPVAQYPTIAPPAVTISASYPGADAKTVQDTVTQVIEQNMNGIDNLMYMSSNSDSTGTVQITLTFESGTDADIAQVQVQNKLQLAMPLLPQEVQQQGVSVEKSSSSFLMVVGVINTDGTMTQEDISDYVAANMKDAISRTSGVGDVQLFGSQYAMRIWMNPNELNKFQLTPVDVITAIKAQNAQVAAGQLGGTPPVKGQQLNASIIAQTRLTSTEEFGKILLKVNQDGSRVLLRDVAKIELGGENYDIIAEFNGQPASGLGIKLATGANALDTAAAIRAELAKMEPFFPSGLKIVYPYDTTPFVKISIHEVVKTLVEAIILVFLVMYLFLQNFRATLIPTIAVPVVLLGTFAVLAAFGFSINTLTMFGMVLAIGLLVDDAIVVVENVERVMAEEGLPPKEATRKSMGQIQGALVGIAMVLSAVFVPMAFFGGSTGAIYRQFSITIVSAMALSVLVALILTPALCATMLKPIAKGDHGEGKKGFFGWFNRMFEKSTHHYTDSVGGILRSTGRYLVLYLIIVVGMAYLFVRLPSSFLPDEDQGVFMTMVQLPAGATQERTQKVLNEVTHYYLTKEKNNVESVFAVNGFGFAGRGQNTGIAFVSLKDWADRPGEENKVEAITMRATRAFSQIKDAMVFAFNLPAIVELGTATGFDFELIDQAGLGHEKLTQARNQLLAEAAKHPDMLTSVRPNGLEDTPQFKIDIDQEKAQALGVSINDINTTLGAAWGGSYVNDFIDRGRVKKVYVMSEAKYRMLPDDIGDWYVRAADGQMVPFSAFSSSRWEYGSPRLERYNGLPSMEILGQAAPGKSTGEAMELMEQLASKLPTGVGYDWTGMSYQERLSGNQAPSLYAISLIVVFLCLAALYESWSIPFSVMLVVPLGVIGALLAATFRGLTNDVYFQVGLLTTIGLSAKNAILIVEFAKDLMDKEGKGLIEATLDAVRMRLRPILMTSLAFILGVMPLVISTGAGSGAQNAVGTGVMGGMVTATVLAIFFVPVFFVVVRRRFSRKNEDIEHSHTVDHH
notes: AcrB, inner membrane RND multidrug transporter of Escherichia coli, encoded on plasmid pQE70-AcrB; also called WT AcrB; WT; source: E. coli BW25113ΔacrB transformed with pQE70-AcrB (in cells for cross-linking); purified as described (Lu et al., 2011) for BN-PAGE
For the protein B1, the binding result is “binds”.
